B1: H4H17001P (antibody, human IgG4, V domains shown)
VH: QVQLVESGGGLVKPGGSLRLSCAASGFTFSDYYMNWIRQAPGKGLEWISLISSSGSAIYYSDSVKGRFTISRDNARKSLYLQVNSLRAEDTAVYYCARDRGEWALGAYYYGLDVWGQGTTVTVSS
VL: DIVMTQSPLSLPVTPGEPASISCRSSQSLLHSDGYNYLDWYLQKSGQSPQLLIYLGSNRASGVPDRFSGSGSGTDFTLKISRMEAEDVGVYYCMQALQTPYTFGQGTKLEIK
B2: H4H16950P (antibody, human IgG4, V domains shown)
VH: QVQLVQSGAEVKKPGASVKVSCKTSGYTFTNYGITWVRQAPGQGLEWMGWISAYNGNTNYAQNVQGRVTMTTDTSTSTAYMEVRSLRSDDTAVYYCARRSSMLHFQHWGQGTLVTVSS
VL: DIVMTQSPDSLAVSLGERATINCKSSQHVLYDSSNENYLAWFQQKPGQPPKLLIYWASTRESGVPDRFSGSGSGTDFTLTISSLQAEDVAVYYCQQYSSAPYTFGQGTKLEIK
B3: H4H16946P (antibody, human IgG4, V domains shown)
VH: EVQLVESGGGLVQPGGSLRLSCVASGFTFSNYDMNWVRQAPGEGLEWISYISYSDHNIYYIDSVKGRFTISRDNAKNSLYLQMNSLRAEDTAIYYCAREALASSSFDYWGQGTLVTVSS
VL: EIVMTQSPATLSVSPGERVTLSCRASQSVSGNLAWYQQKPGQAPRLLIYSASTGATGVPARFSGSGSGTEFTLTISSLQSEDFALYYCQQYNKWPRTIGQGTKVEIK
B4: H4H17033P (antibody, human IgG4, V domains shown)
VH: QVQLVQSGAEVKKPGASVKVSCKASGYTFAAHYMHWVRQAPGQGLEWMGWINTYTGGTNYGQKFQGRVTMTRDTSITTAYMELSRLRSDDTAVYYCARDRRNWNFVFEYWGQGTLVTVSS
VL: DIQMTQSPSSLSASVGDRVTISCRASQNIKNYLNWYQQKPGKAPKLLIYEASNLQSGAPSRFSGSGSGTDFTLTISSLEPEDFATYYCQQSFSIPWTFGQGTKVEIK
B5: H4H16960P (antibody, human IgG4, V domains shown)
VH: QLQLQESGPGLVRPSETLSLTCTVSGGSISSSNYWWGWIRQPPGKGLEWIGSIYYSGITYYNPSLKSRVTISADTSKDQFSLKLRSVTAADTAVYYCAKLEWLRLDFWGQGTTVTVSS
VL: DIQMTQSPSSVSASVGDRVTITCRASQGISSWLVWYQQKPGKVPKLLIYAASSLQSGVPLRFSGSGSGTDFTLTISSLQPEDFATYYCQQAKSFPLTFGQGTRLEIK
B6: H4H17015P (antibody, human IgG4, V domains shown)
VH: QVQLQESGPGLVKPSQTLSLTCTVSGGSISSADHYWSWIRQQPGKGLEWIGYISYRGTTYYNPTLESRVSISVDTFKNQFSLMLHSVTVADTAVYYCAKVLQGLVRFRDYGFDVWGQGTTVTVSS
VL: DIQLTQSPPFLSASVGDRVTITCWASQDISSYLAWYQQNPGKSPKLLIYDAFTLHTGVPSRFSGSGSGTEFTLTISSLQPEDFATFYCQHLYSFPFTFGPGTKVDIK
B7: H4H17031P (antibody, human IgG4, V domains shown)
VH: QVQLQQWGAGLLKPSETLSLTCVVYGESFGNYHWNWIRQSPGKRLEWIGEINQNGHTNYNPSLKSRVTISVDTSKIQFSLRLNSVTAADTAVYFCARGHNYVNSYFGLDVWGQGTTVTVSS
VL: EIVMTQSPATLSVSPGERATLSCRTSQSVSISLAWYQRKPGQAPRLLIFGSSTRATGVPARFSGSGSGTEFTLTISSLQSEDFAVYYCQQYNNWPYTFGQGTKLEIK
B8: H4H16987P (antibody, human IgG4 S228P, kappa, V domains shown)
VH: EVQLVESGGGLVQPGGSLRLSCAASGFTVSSNSMSWVRQAPGEGLEWVSVIFSGGITYYSDSVKGRFTISRHNSKNTLYLQMNSLRTEDTAVYYCARHSNWNFDAFDIWGQGTMVTVSS
VL: DIQMTQSPSSLSASVGDRVTITCRASQSFDTYLNWYQQKPGKAPNLLIYATSSLQSGVPSRFSGSGSGTDFTLTISSLQPEDFGTYYCQQSYSIPYTFGQGTKLEIKR
B9: H4H17027P (antibody, human IgG4, V domains shown)
VH: EVQLVESGGGLVQPGGSLRLSCAASGFTFRNYAMHWVRQAPGEGLEWVAAIYRNSDSIDYADSVKGRFTISRDNAKNSLYLQMNSLKTEDTALYYCAKDEGFLEYFDSWGQGTLVTVSS
VL: EIVLTQSPGTLSLSPGERASLSCRASQSVSSSFLAWYQQKPGQAPRLLIYGVSSRFIGIPDRFSGGGSGTDFTLTITRLEPEDFAVYYCQQYGRSPWTFGQGTKVEIK
B10: H4H16991P (antibody, human IgG4, V domains shown)
VH: QVQLVQSGAEVRKPGASVKVSCKASGYTFTGYYLHWVRQAPGQGLEWMGLINPNTGGTNFAQKFQGRVTMTRDSSISAAYMELSRLRSDDTAVYYCARQHWNRYFDNWGQGTLVTVSS
VL: DIQMTQSPSTLSASVGDRVTITCRASQSVGNWLAWYQQKPGKAPKLLIQEASSIESGVPSRFSGSGSGTEFTLIVSSLQPDDFATYYCQQYNSYSWTFGHGTKVEIK
B11: H4H17028P (antibody, human IgG4, V domains shown)
VH: QVQLVESGGGVVQPGRSLRLSCAASGFTFSRYAIHWVRQAPGKGLEWVAVISYDGDDKYYGDSVKGRFTISRDNSKTMVYLHMNSLRTEDTAVYYCAKDGYSLYGKDYFDYWGQGTLVTVSS
VL: EIVLTQSPGTLPLSPGERATLSCRASQSITNSYLAWYQQKPDQAPRLLIYGASSRATGIPDRFSGSESGTDFTLTISRLEPEDFAVYYCQQYVRSPWTFGQGTKVEIK

The results in this text go back to US20240083986A1.

This assay has as its target Hazel (Cor A 1, MyBiosource, Cat #MBS5304600) (Hazel) (UniProt Q08407). Put plainly: SPR, mAb captured via anti-hFc, 25 C. Background: SPR reads the build-up and loss of mass on a sensor chip optically.
B1: the 100 nM Analyte Bound (RU) is 0 RU.
Take B2: the 100 nM Analyte Bound (RU) is 0 RU.
As to B3, the 100 nM Analyte Bound (RU) was -1 RU.
On to B4, for which the 100 nM Analyte Bound (RU) was found to be 0 RU.
For the molecule B5, the 100 nM Analyte Bound (RU) was 0 RU.
In turn, B6 came in with a 100 nM Analyte Bound (RU) of 1 RU.
Then B7, with 0 RU.
B8 displayed a 100 nM Analyte Bound (RU) of 0 RU.
In the case of B9, the 100 nM Analyte Bound (RU) came to 0 RU.
Then B10, with 0 RU; and B11, with 0 RU.
